Values joined by “and” are separate entries in the source; they are usually repeats but may differ in a detail not shown here. Equal values may be shown once. Where no end group is shown, it is not given here.
Assays:
[1] = target: bovine PACAP receptor protein from bovine cerebrum (bovine) (UniProt Q29627); test: radioligand
[2] = target: T1, rat PACAP receptor protein Type I-A (pRPR3-A, derived from pRPACAPR46-5), expressed in CHO or Sf9 cells (rat, UniProt P32215 20-523); test: competition with 100 pM [125I]-PACAP27, membrane fraction of pRPR3-A-introduced CHO cells (FIG. 40A)
T1 construct: also called pRPR3-A-introduced CHO cells; clone A12
T1 sequence: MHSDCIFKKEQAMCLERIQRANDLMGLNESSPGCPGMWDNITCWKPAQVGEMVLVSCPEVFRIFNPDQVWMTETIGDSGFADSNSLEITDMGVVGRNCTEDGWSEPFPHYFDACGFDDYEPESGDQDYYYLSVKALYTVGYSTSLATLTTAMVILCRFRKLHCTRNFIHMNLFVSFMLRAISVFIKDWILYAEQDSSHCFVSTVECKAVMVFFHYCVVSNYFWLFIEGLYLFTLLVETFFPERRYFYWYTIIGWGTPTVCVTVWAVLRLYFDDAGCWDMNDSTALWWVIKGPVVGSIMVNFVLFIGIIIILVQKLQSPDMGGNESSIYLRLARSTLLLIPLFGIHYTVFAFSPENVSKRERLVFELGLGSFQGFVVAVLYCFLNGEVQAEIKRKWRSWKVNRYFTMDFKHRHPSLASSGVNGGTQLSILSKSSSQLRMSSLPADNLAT
Experimental: (§1) The pRPR3-A-introduced and pRPR4-B-introduced CHO cells obtained in (2) described above were each disrupted in sodium carbonate buffer containing 1 mM EDTA, 0.5 mM PMSF, 20 μg/ml leupeptin, 4 μg/ml E-64 and 1 μg/ml pepstatin with a Polytron homogenizer (Kinematica) to prepare membrane fractions. Using the membrane fractions, complex binding experiments were conducted. […] The reaction was conducted at 25° C. for 1 hour, and bound ligands were separated from free ligands by filtration through a filter. […] The amount of bound ligands was measured with a γ-counter.

[3] = target: T2, rat PACAP receptor protein Type I-B (pRPR4-B, derived from pRPACAPR12), expressed in CHO or Sf9 cells (rat, UniProt P32215 20-523); test: competition with 100 pM [125I]-PACAP27, membrane fraction of pRPR4-B-introduced CHO cells (FIG. 40B)
T2 construct: also called pRPR4-B-introduced CHO cells; clone B17
T2 sequence: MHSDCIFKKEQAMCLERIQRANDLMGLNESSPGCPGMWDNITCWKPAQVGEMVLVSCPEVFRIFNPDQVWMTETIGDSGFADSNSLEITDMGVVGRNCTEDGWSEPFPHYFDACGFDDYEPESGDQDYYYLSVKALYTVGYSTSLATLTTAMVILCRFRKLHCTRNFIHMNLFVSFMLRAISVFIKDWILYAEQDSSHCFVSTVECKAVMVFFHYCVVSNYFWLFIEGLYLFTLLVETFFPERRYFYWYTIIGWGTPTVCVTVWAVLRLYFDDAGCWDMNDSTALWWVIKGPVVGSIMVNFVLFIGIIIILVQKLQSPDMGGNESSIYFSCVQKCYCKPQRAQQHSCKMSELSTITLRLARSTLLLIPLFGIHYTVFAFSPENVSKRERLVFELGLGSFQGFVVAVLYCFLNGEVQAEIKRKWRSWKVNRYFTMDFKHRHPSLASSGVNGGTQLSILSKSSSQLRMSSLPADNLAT
Experimental: as §1

[4] = target: T3, bovine PACAP receptor protein Type I-A encoded by pBPR-T, expressed in CHO cells (UniProt Q29627 38-513); test: radioligand
T3 chain: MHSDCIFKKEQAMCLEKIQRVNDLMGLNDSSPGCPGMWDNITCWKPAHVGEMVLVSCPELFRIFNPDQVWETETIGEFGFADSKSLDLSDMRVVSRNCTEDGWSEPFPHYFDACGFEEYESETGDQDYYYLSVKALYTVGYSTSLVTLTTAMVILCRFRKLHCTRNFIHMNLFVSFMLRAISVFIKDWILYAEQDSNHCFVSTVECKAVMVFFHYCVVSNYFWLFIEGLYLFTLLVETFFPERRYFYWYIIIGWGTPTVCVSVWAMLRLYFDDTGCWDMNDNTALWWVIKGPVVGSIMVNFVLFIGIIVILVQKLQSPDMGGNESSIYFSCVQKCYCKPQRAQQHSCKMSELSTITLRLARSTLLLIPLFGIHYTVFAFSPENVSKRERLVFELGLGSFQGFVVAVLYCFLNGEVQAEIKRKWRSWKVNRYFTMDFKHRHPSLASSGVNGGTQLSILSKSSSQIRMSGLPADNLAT

[5] = target: bovine PACAP receptor protein from bovine cerebrum (bovine) (UniProt Q29627); test: saturation binding experiment; fraction: Ion exchange
[6] = target: bovine PACAP receptor protein from bovine cerebrum (bovine) (UniProt Q29627); test: saturation binding experiment; fraction: Avidin-agarose
[7] = target: bovine PACAP receptor protein from bovine cerebrum (bovine) (UniProt Q29627); test: saturation binding experiment; fraction: Hydroxyapatite
[8] = target: bovine PACAP receptor protein from bovine cerebrum (bovine) (UniProt Q29627); test: saturation binding experiment; fraction: Membrane fraction
[9] = target: bovine PACAP receptor protein from bovine cerebrum (bovine) (UniProt Q29627); test: saturation binding experiment; fraction: Solubilized product
[10] = target: bovine PACAP receptor protein from bovine cerebrum (bovine) (UniProt Q29627); test: saturation binding experiment; fraction: Micro hydroxyapatite
[11] = target: T1, rat PACAP receptor protein Type I-A …; test: 100 pM [125I]-PACAP27 on whole CHO cells, gamma counting (FIG. 39)
Experimental: (§2) The cells were incubated until they covered the bottom surface of the tissue culture plates completely. […] The cells were washed twice with a buffer for the binding experiment [Hank's solution (pH 7.4) containing 5 mM HEPES, 5% CRAPS and 0.1% BSA]. […] After incubation at 37° C. for 1 hour, the cells washed three times with the buffer for the binding experiment were dissolved with 1 ml of 0.5 N NaOH and 0.1% SDS for each well, and the radioactivity contained therein was measured with a γ-counter.

[12] = target: T2, rat PACAP receptor protein Type I-B …; test: as above
Experimental: as §2

[13] = target: bovine PACAP receptor protein from bovine cerebrum (bovine) (UniProt Q29627); test: saturation binding experiment; fraction: Gel filtration (final purified sample)

[^125I]-PACAP27
Kd [1]: 0.029 nM and 0.03 nM

B1: PACAP27 (peptide)
peptide: HSDGIFTDSYSRYRKQMAVKKYLAAVL-NH2
notes: also called unlabeled PACAP27; cold PACAP27
binding result [2]: binds
binding result [3]: binds

B2: [^125I]-PACAP27 (peptide)
peptide: HSDGIFTDSYSRYRKQMAVKKYLAAVL-NH2
modifications: also: 125I label on one Tyr, which one not given here
notes: also called radioactive iodine-labelled PACAP27
Kd [4]: 0.103 nM
Specific activity [5]: 9.9 pmol/mg
Total activity (maximum binding of [125I]PACAP27) [5]: 4700 pmol
Total activity (maximum binding of [125I]PACAP27) [6]: 2040 pmol
Specific activity [7]: 25 pmol/mg
Total activity (maximum binding of [125I]PACAP27) [7]: 3350 pmol
Specific activity [8]: 1.3 pmol/mg
Total activity (maximum binding of [125I]PACAP27) [8]: 8120 pmol
Specific activity [9]: 1.9 pmol/mg
Total activity (maximum binding of [125I]PACAP27) [9]: 4560 pmol
Total activity (maximum binding of [125I]PACAP27) [10]: 1720 pmol
binding result [11]: binds
binding result [12]: binds
Specific activity [13]: 16000 pmol/mg
Total activity (maximum binding of [125I]PACAP27) [13]: 671 pmol

Source: patent US20020155533A1 (Takeda / Millennium, published 2002)
